Experimental data published in a protein production outcome set (Wang et al. 2014).

Test: label from the status in PepcDB records
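Further: failed if final PepcDB status was selected cloned or expressed and not failed if soluble or beyond.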

Sequence | protein production
MDIGFLVFGLAGLLTLVCFMPPLAGRLKLPYSVLLALVGCLLGIGVHLHGWAPPVLGDLLDTIEHFEISSETFLMVFLPVLLFETALSMNVRRLIDDIGPILMMAIVAVVVCTLVVGFAVDAVSSYGLIVCLLLGAIVATTDPAAVVGIFREVGAPKRLTTLVEGESLFNDAASIALYSVLLAALGGSGELSVGAVFNDFIFHFVGGGLAGFLMGRLACALFAWLRGFPTAEITLTLTLAYLSFFISEHYLGVSGVVATVIAGLVVGSTGRTRMSPTTFEFLSSAWGQFGFWANSLIFLFAAMLIPKLMAEADWQELLLVLVVFAATLAARAIVVFGLLPLLRVARIGAEVSNPYKSVMWWGGLRGAVSLALALAVTEQSSVPEQARQFVAVATTGFVLMTLMINGVSLRPLIRMLGLNQLSPVERTIRNQVLAAALEDLQGRTEEIAKVDHVNPEARDRIRAVFDASLTSVHDGQVGQMTLDQRVAVGLSIVARREEEMFFDILKAQIVDWRLAEGLLARAERLEDAVRAGGLAGFEAGIVADVRYSRLFRMALRTHYMFGFQGWLARELGKRFASLLTKRSVARDLMKFAREQVAPLLGEEAADRIIAAHQRRLDLIENALQALTLQYPSYSLWLQESHLGRVARELERRRYRDMLEQFLISGEVYADLMAQLKARWQHIDKHPPLDIELGSAELVKRVPLFEGLSQDSLRAICRLLKPRLALPDQHILTEGRHGQEMCIVASGAVVVHLPDHTTIELGSGEFFGELALLGEEQLVPDVTSLGYSKLLMLSARDFHALLARDEHLRERIQTVAKQRMRAIEVWKQYSQAAAAAAASTASEDSAPA | failed
MSTDTCIKRPTRSELVDRFQKKIRAGEPIIGGGAGTGLSAKSEEAGDIDLIVIYNSGRYRMAGRGSLAGLLAYGNANQIVVDMAREVLPVVRHTPVLAGVNGTDPFMVMSTFLRELKEIGFAGVQNFPTVGLIDGLFRQNLEETGMSYAQEVEMIAEAHKLDLLTTPYVFSPEDAVAMAKAGADILVCHMGLTTGGAIGARSGKSMDDCVSLINECIEAARTIRDDIIILSHGGPIANPEDARFILDSCQGCHGFYGASSMERLPAEEAIRSQTLAFKAIRRQPA | not failed
MNTLSIYRFKQWLKEGESPLALTLFRIAKSIRHFELPTPRLLNKVLYGLHKTLCTQWQAFTHLIFYVPAFKGRLESYGKRTLLYGGLPFFSGPLTMRIGNDCRISGQTTFSGRTNSDNPTLEVGDNVDICWQTTIAVGNKVIIGNNVRIAGQGFLCGYPGHPIDPTERALGKPDLDSQVGDIILEQDVWLGSRVSIIGNVTVGEGTIVASGSVVTKSLPPFVLAAGNPAKVIKKLDVNASNTIKEEIHYEA | failed
MGHHHHHHSHMASRVRVTILFATETGKSEALAWDLGALFSCAFNPKVVCMDKYRLSCLEEERLLLVVTSTFGNGDCPGNGEKLKKSLFMLKELNNKFRYAVFGLGSSMYPRFCAFAHDIDQKLSHLGASQLTPMGEGDELSGQEDAFRSWAVQTFKAACETF | failed
MLFSIRNFNQGVIMAGWFELSKSSDNQFRFVLKAGNGETILTSELYTSKASAEKGIASVRSNSPQEERYEKKTASNGKFYFNLKAANHQIIGSSQMYATAQSRETGIASVKANGTSQTVKDNT | failed
MGKVQPVYWRQLRDIEMENNFLLDVRTPDEFSLNTLPGAVNIPLDELRDRLDELPKDKMIYTFCAVGLRGYLAYRILVQHGFEKVRNLSGGLKTYHAAAAPIILREESENEVPLEHHHHHH | not failed
MDTSNATSVVNVSASSSTSTIYDLGNMSKDEVVKLFEELGVFQAAILMFSYMYQAQSNLSIAKFADMNEASKASTTAQKMANLVDAKIADVQSSTDKNAKAKLPQDVIDYINDPRNDISVTGIRDLSGDLSAGDLQTVKAAISAKANNLTTVVNNSQLEIQQMSNTLNLLTSARSDVQSLQYRTISAISLGK | failed
MNVDILKQRAKAFDYVFDAIVVTDLQGFIIDWNKGSETLYGYSKEQAIGQPVNMLHVPGDTEHITSEVISAVENQGKWTGEIRMLHKDGHIGWIESMCVPIYGENYQMVGALGINRDITLEHHHHHH | not failed
SQEIVAGELERCFLAMPESVLPIVTMEERNDLCRRAGHLSGFTHTASLESSLGGTVTFLLNRNFIRIQTSTVGEVFMRILPFSDSSSVICVVTTVLHPVADSRIDFYTTEWKPLKTDRFWQQPRIEDFFLPHTDRQSYAYQAIYASLTPSYMQVSLSEESDTLSIRQTVTETLAEEEKPLAAIFLSPEPLVYRWQSGRFVRQVR | not failed
GNLEEMNIDPDNATQTHPKLLLTQICMNAFKRGTDGMYATKKVIQADGESADQYYKWTRGSFGYYDNLRNVQKMGEEAERVNAPVYTALTKFFRAYYFYELTLRFGDIPYSQALKGEKEEIYTPEYDAQEDVFAGILQELREADEILANDASVIDGDIIYNGNSTQWRKLINSFRLKVLMTLSNHTTVGNINIASEFKNIATNSPLMNSLADNGQLVYLDQQGNRYPQFNAQWSGYYMDDTFIQRMRERRDPRLFIFSAQTNKGKTEGKPIDDFSSYEGGDPAAPYSDAIIKVSEGTISPINDRFRTDPIVEPTMLMGYAELQQILAEAVVRGWISGNAQTYYEKGIRASFSFYETHAKDYAGYLNENAVAQYLKEPLVDFTQASGTEEQIERIIMQKYLVTFYQGNWDSFYEQLRTGYPDFRRPAGTEIPKRWMYPQGEYDNNGTNVETAITRQFGAGNDKINQATWWQKKS | not failed
ARRASAGELDAAVMHELAPLKMERAVFQTRITEGEPGPEGRDAVAFEVATNPGAPAGPLNRIASGGELSRFLLALKVCLRGDDGGKTMIFDEIDRGVGGATADAVGRRLEALAGAGQVLVVTHSPQVAARGVHHWRV | failed
MSKLDLHQMTTQDLVALFAKVTVEQDDALLGNQISRFNRLFGVMAEIADELKARDGDQRTALLSLFEYPNMQVRLQAAKLTLAVAPVKAREQLEAIVSSKWFPQAGDAGMCLDLLDDGTFKPK | not failed
MVGLVACSKQSANQQISYRQTAEATLDKGMDNQPEAPYWFPKQLLKWQLSKDKAAKYNTASVPLAKRIDKWQLPTVNKTQDPKMKVVALSIMNSSTSGNAPRGINTFDANVFSNWQYIDQLVYWGGSAGEGLIVPPTADVIDSAHKNGVPVLGTVFFPQVVSGGKLKWLNDFLKQDADGHFPMADKLVAVAKAYGFDGWFINQETDPEVKSFDSASTGKTATSSTSNGLSKKHAQLMQQLIKEYKQKAGSKLDLMWYDSMTKDGKMDWQNALTKENQSYLVDANMKPVADSMFLNFWWTKKRLASQELLKKSHERAEKLGISPYNLFAGIDVQADGTATPVRWNLFANKQHVPYTSLGLYAPDWTHASSDTVDEFQAKEGALWVNDQNDPSRLEHHHHHH | not failed
MSKDSNKIIEQSREIGISIIMPLYNVEEVILETLESIHEQTFDSYEVLLIDDGSTDKTIEIVTEYIKDKPRFKLYTQPNGGPASARNHGLRLAIGMYICFVDSDDILPNYSLQLMYDGAISTGAKLITGATKRFNSEGEWFIPMHIQYNIAKPGMKTLLKNPELFYSIGPCAKLYHHSLIDGVFFPENIRYGEDQPFVLHALLQAKDIYTVEKVVYYYRLRDGESQSLTQSVDKDPIRILKSVFQIFDYGEEELKKNNTDYELEHHHHHH | failed
MPGSLRKMPVWLPIVILLVAMASIQGGASLAKSLFPLVGAPGVTALRLALGTLILIAFFKPWRLRFAKEQRLPLLFYGVSLGGMNYLFYLSIQTVPLGIAVALEFTGPLAVALFSSRRPVDFVWVVLAVLGLWFLLPLGQDVSHVDLTGCALALGAGACWAIYILSGQRAGAEHGPATVAIGSLIAALIFVPIGALQAGEALWHWSVIPLGLAVAILSTALPYSLEMIALTRLPTRTFGTLMSMEPALAAVSGMIFLGETLTPIQLLALGAIIAASMGSTLTVRKESKIKELDIN | failed
MKMANHPRPGDIIQESLDELNVSLREFARAMEIAPSTASRLLTGKAALTPEMAIKLSVVIGSSPQMWLNLQNAWSLAEAEKTVDVSRLRRLVTQSTP | not failed
MLHGLKQRLEALHHPGELEGSPQNLHQLLGVSIEQSVPQAQTMLVERHLASLTGDEARLLAALSDGSAFALLTLYSGSRFSRGEVLYRYSNAGRAAGIQCNDFIALYLNHLFAQGLVIASDFTESLRTDYELCEGDSDFRKAQAELQIHLPKLSIRRETLRISPLGRQLWTLMTTPADIEE | not failed
MEMTNAQRLILSNQYKMMTMLDPANAERYRRLQTIIERGYGLQMRELDREFGELKEETCRTIIDIMEMYHALHVSWSNLQDQQSIDERRVTFLGFDAATEARYLGYVRFMVNVEGRYTHFDAGTHGFNAQTPMWEKYQRMLNVWHACPRQYHLSANEINQIINA | not failed
MSLTNHHPSSTGPQHPYRAGWIHFTNVAPILDSLELPPGVTAITGVPTQMNAALLSGEVDIANVSAVEFIRHADTLAALPDFSVAVLGPVYSVNLFHTCPLPELRRVALTSQSAMSVALLEVLLRQKGLSPVLERAEGTAESLLAAGYDGVLRIGDDALREWYGVVGPLTPERTMTSLPHTGRGITVTDLAQEWFDLTGHPFTFAVWAYRKDNPPPAALLQAMREARRRGIGHLAEVSQRHAEKLGLPERVVQHYLWNFRYHLEAPDRLGLREFADLAVPGHAELTFGAREEAEGHHHHHH | not failed
VGVRRENATATGVLLIPDGPDCPRPYPILTWGPSTSAQRHVGQDKTIVNANGNTPLVTRLASQGYVLVSPDYLGLGDSDYPFHPYLHLFTEVSSTIDAVRAARDVLWHSNTPLSNKVMLSGFSQGGQAALAVQREIEAHQSLSQEFSLVASAPISGPYALSQTILDSWSGRNK | failed
MENKRAIIAVVLSFIVLVGWGYLSEYMGWTPKSVPATEQKTAASAPAPSVVTSAPEAVTPAPAFSPSTGHEVTVTTPLYKAVLHSGGGVLRQFMLSRYHMGIDRDAAPVNLIESSAIRVAPLGLLVNGQPSWNTGQWAFEGGDLNLADGQTGTLRFVGSVDGLRVVRELEFHADSYLVTEKLHLAPEGDAPRTARVGFTLGTTSLTPGESQYNLTRVAWFADGSFSEKSSTGDLEKGVLIDGSIDWAGVMSNYFLAAVAPKDTRAVLKGKLEGGVYRVAVERPDQMVNPGNSDVIVCNYWFGPKERDLLNAAPNNLGKAIDLGWFGFIARPLVTLLDFFYKYVGNYGTAIILLTILIKLVFWPLSHKSYKSMEQMKKLQPMLAKVREKHADDREKMNEEMMRLYKTYKVNPAGGCLPMLVQIPVFFGLYQALLNAIELRHAPFIAHVPFTDIVWLADLSAKDPFYVTPLVMGATMFLQQKLTPPAGDPTQAKVMMFMPVVFTFLFLNFPSGLVVYWLCNNVLSIAQQWWILRKA | failed
MNHRHYGNFMAALSFVIWGLLPVYYRFLHNAAMDELLAWRIIGSVPVGILIVYAVTRHWPNWSQVWRDKKSLWYTFVASSLMCISWSAFTWALTHHRVIDASLGFFIGPLVSVALGVFVLGDKLSKGQLIAILLATCGVLYQVFQYGQLPFVALTMGLFFALYGLYKKKINYDWSTTLFIEALVLAPFALGYLLFKQWTTGELASSVDTTTLLLYFGSAPITILPLIFYSIAIRITNLSTVGLMQYIEPSLQFILAVVFFGELFDDVKAVTFAFIWVGLLLTIFEGVAKGIKRKKLANHSV | failed
MLMSEIGQIAAILATAREVAVATHIIPDGDCLGSMLGLTLALRKRGTSVIAINADPVPEMFQYLPGQETIIDPDQVTSMPPLLVMVDCTDMERAGKGFSNWQQRVEKIINIDHHVSNTRFGHLNLVDSRAAATAELIYAVLEQIPATFTPEVATCLYTALATDTGSFQYENCTARTLRLAASLLEKGADMPLIREHLWESKPLNSIRLLAATLPTLTLAYEGRVAWMTVSRAALEANGARPEHAEGLVNYPRSIAGVEVGMLFRELPDGKVKVSLRSKKIVDVNRVAALFGGGGHRRAAGCTLDGDLDTVVARVVAAAGEAL | failed
